± gives the uncertainty stated by the source.
Assay: protein stability index of a GFP-peptide fusion (yeast GPS) (PSI 1-4); higher = more stable; sorted into four equal gates, so the index is relative within each strain
In short: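 The protein stability index combines read frequencies across sorting gates, each weighted by its gate number and then summed. To obtain those frequencies, a pooled yeast library of GFP fusions to tiled 17-residue yeast protein peptides, on a plasmid also expressing Cherry, was grown to mid-log phase in leucine-free medium. The cells were sorted into four equal gates by GFP/Cherry ratio before plasmid amplification by PCR and Illumina sequencing.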

Sequence	protein stability index (doa10∆)	protein stability index (pdr5∆)	protein stability index (san1∆)	protein stability index (ubr1∆)
DRKIQGWLGALTMANLP [ARP7]	2.8 ± 0.066	3 ± 0.063	2.65 ± 0.069	2.81 ± 0.045
DRRAQRVAEKRDALLKE [RPL19A]	3.19 ± 0.12	3.25 ± 0.097	3.07 ± 0.15	3.44 ± 0.067
DRVQQDSEDEDSMKDTT [YML031W/NDC1]	3.25 ± 0.14	3.22 ± 0.16	3.26 ± 0.091	3.25 ± 0.07
DSAKEWPQSKNCEYEDP [RPB3]	3.6 ± 0.19	3.13 ± 0.13	3.27 ± 0.14	3.27 ± 0.14
DSEIEISSEKLLTLTNA [RPP1A]	2.99 ± 0.063	2.92 ± 0.073	2.93 ± 0.061	3.12 ± 0.055
DSHKRIPDMSKNVELGW [SNU114]	3.06 ± 0.17	3.28 ± 0.11	2.79 ± 0.13	3.41 ± 0.097
DSIDLAPNTLTNILISP [YML103C/NUP188]	1.58 ± 0.11	1.87 ± 0.081	1.55 ± 0.15	1.56 ± 0.19
DSIPRDVAYLLKSESAT [YGL172W/NUP49]	2.74 ± 0.092	3.11 ± 0.079	2.91 ± 0.05	3.19 ± 0.074
DSLKLNSKPVELKPVSL [YJL041W/NSP1]	2.9 ± 0.082	2.79 ± 0.07	2.49 ± 0.097	2.63 ± 0.1
DSLSVPKVSAGDSGISP [SIR4]	3.24 ± 0.12	3.24 ± 0.11	3.02 ± 0.084	3.18 ± 0.058
DSTIGNSKVDMKYDIFA [IRR1]	2.82 ± 0.071	2.78 ± 0.082	2.71 ± 0.078	2.88 ± 0.06
DSTLILEQLAQHTTESD [RPB2]	2.17 ± 0.05	2.67 ± 0.055	2.46 ± 0.072	2.43 ± 0.052
DTAGEESQQQDESLKDE [SWI3]	3.36 ± 0.2	–	3.13 ± 0.16	3.61 ± 0.29
DTDNECVAAWGVCNHAF [HRT1]	3.25 ± 0.095	3.3 ± 0.059	3.33 ± 0.054	3.15 ± 0.05
DTDSKPSSQSQNDTPMF [YLR018C/POM34]	2.89 ± 0.044	3.17 ± 0.048	3 ± 0.039	2.95 ± 0.034
DTIATSATPNAAAFSQQ [GAL11]	2.6 ± 0.056	2.92 ± 0.064	2.76 ± 0.055	2.82 ± 0.039
DTLDSKSNGSSDDDNIG [ISW2]	3.26 ± 0.09	3.23 ± 0.074	3.11 ± 0.057	3.03 ± 0.067
DTRITPSKVSKIDSHVV [PRE6]	2.76 ± 0.078	3.09 ± 0.064	2.46 ± 0.14	2.72 ± 0.063
DTTFSDFKEVEDFLHFI [SRB4]	2.83 ± 0.06	2.09 ± 0.05	2.23 ± 0.064	2.56 ± 0.048
DVCKTRFNHLVTRLFFI [YML031W/NDC1]	1.79 ± 0.046	1.53 ± 0.039	1.52 ± 0.072	1.77 ± 0.034
DVEVDDDFTNELKAELD [SEM1]	3.25 ± 0.13	3.55 ± 0.11	3.54 ± 0.085	3.36 ± 0.056
DVKFPSNTTTQIQFTPL [SMC3]	2.59 ± 0.16	2.64 ± 0.15	2.98 ± 0.14	2.76 ± 0.052
DVKKPFSFGTSQPNNTP [YLR335W/NUP2]	2.61 ± 0.096	2.34 ± 0.083	2.5 ± 0.12	2.15 ± 0.064
DVLKSQANTEPENITKR [MCD1]	3.06 ± 0.1	3.02 ± 0.083	2.98 ± 0.057	3.09 ± 0.046
DVNIIGKDRIAINVFPE [RPO31]	2.75 ± 0.12	3.05 ± 0.12	2.88 ± 0.098	3.36 ± 0.086
DVNTNANANANATANAT [SNF11]	3.13 ± 0.088	3.27 ± 0.081	3.23 ± 0.045	3.32 ± 0.063
DVQARRQFVSNVRSVIR [RPP1]	2.02 ± 0.15	2.5 ± 0.12	1.65 ± 0.23	2.44 ± 0.13

Sequence	protein stability index (doa10∆)	protein stability index (pdr5∆)	protein stability index (san1∆)	protein stability index (ubr1∆)
DVVAKLEAKRKVSSAEY [RPL16A]	1.69 ± 0.11	1.7 ± 0.071	–	–
DVVYALKRQGRTLYGFG [HHF1]	2.77 ± 0.083	2.8 ± 0.11	2.34 ± 0.14	2.38 ± 0.083
DVYNRELDEHTTQIDLF [BRR2]	3.07 ± 0.07	2.73 ± 0.056	2.9 ± 0.046	2.41 ± 0.04
DWIRFVSTKTNEYRLAF [RPL22A]	2.03 ± 0.039	2.17 ± 0.045	2.75 ± 0.064	2.62 ± 0.042
DWVENELEALKLEAEEI [FAS2]	3.29 ± 0.27	–	–	3.49 ± 0.24
DYITEAVFKIVLQPLLP [SNU114]	1.44 ± 0.043	1.31 ± 0.066	1.38 ± 0.089	1.51 ± 0.055
DYLKNIIVENSGTSGDE [RPN2]	3.43 ± 0.21	3.48 ± 0.15	3.14 ± 0.057	3.29 ± 0.1
DYNDVEVNSKKKNKRAL [BRR2]	3.07 ± 0.098	2.95 ± 0.07	2.78 ± 0.12	3.02 ± 0.061
DYPFTQLGYIENSFYKK [POP1]	–	3.14 ± 0.17	2.98 ± 0.1	3.44 ± 0.13
DYQVQGLNWLISLHENK [ISW2]	1.53 ± 0.052	2.15 ± 0.058	1.64 ± 0.078	2.19 ± 0.054
DYVNKTNSHLPAGKQVE [FAS1]	3.16 ± 0.098	3.57 ± 0.24	3.08 ± 0.13	3.08 ± 0.11
EAAKPSLSFGSGSAGAN [YJL041W/NSP1]	2.83 ± 0.11	2.81 ± 0.13	3.02 ± 0.13	3 ± 0.071
EAEIECFDSTTGRDAGF [RRP40]	3.15 ± 0.17	3.12 ± 0.17	3.28 ± 0.095	3.2 ± 0.12
EAESQLRAAQQQWGNDF [FAS2]	3.12 ± 0.072	3.35 ± 0.063	3.07 ± 0.072	3.23 ± 0.044
EAESQWYIEKVIRIPMQ [CSI1]	–	2.96 ± 0.24	–	2.71 ± 0.24
EAKERYTDRDQDEVNKG [NNF1]	3.26 ± 0.15	3.28 ± 0.13	3.3 ± 0.22	3.74 ± 0.11
EAPAGNIDTITDAMTES [MCD1]	2.8 ± 0.079	3.04 ± 0.052	2.96 ± 0.072	3.16 ± 0.057
EASNTPIEHQFNPYGDN [PRE7]	3.15 ± 0.08	3.33 ± 0.089	3.54 ± 0.091	3.38 ± 0.086
EATAASHERFFLSQGLH [CSN12]	1.43 ± 0.16	1.28 ± 0.1	1.09 ± 0.24	1.35 ± 0.18
EATLESKLKEEEAALLI [ESC2]	2.86 ± 0.067	3.05 ± 0.058	2.88 ± 0.038	2.91 ± 0.05
EATLLTNSNNGSSNNNT [SNF5]	3 ± 0.087	3.32 ± 0.13	3.14 ± 0.1	3.21 ± 0.065
EAVELVIGLDSEHDKKR [YML103C/NUP188]	2.74 ± 0.2	3.55 ± 0.15	3.16 ± 0.18	3.37 ± 0.047
EDALYLGKRSILAAAHR [PRE2]	3.42 ± 0.062	3.33 ± 0.06	3.16 ± 0.067	3.31 ± 0.051
EDFDVEHFSDEETYEEK [RPO26]	3.64 ± 0.11	3.05 ± 0.2	3.19 ± 0.22	3.45 ± 0.11
EDGLGPLMAKSVKKAGA [ARP7]	–	3.48 ± 0.27	–	3.27 ± 0.14
EDGMIIDVNLNFARQLL [RRP40]	3.15 ± 0.086	3.23 ± 0.074	3.26 ± 0.079	3.11 ± 0.063
EDKFLYGDGNGKGDNDN [SWI3]	3.48 ± 0.24	3.35 ± 0.16	3.4 ± 0.08	3.42 ± 0.15

— the supplement of paper PMC9732359
